Experimental data reported in the supplement of paper PMC9170038.

Tested on: MS2 coat protein
Experiment: apparent KD of MS2 coat protein; designed switch direction (-1 OFF switch, 1 ON switch): -1; higher = weaker reporter binding
In short: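 The reported apparent KD is a per-design median over clusters, from curve fits of normalised cluster fluorescence. Protein titrations used SNAP-549-labelled MS2 coat protein, doubled from 0.7 or 1.5 nM to 3 µM, in Tris-HCl pH 7.5 buffer with KCl, MgCl2, BSA, DTT, tRNA and Tween-20, with no input, 200 uM small-molecule ligand, or an oligonucleotide input. The RNA switches were transcribed on Illumina chips by stalled E. coli RNA polymerase.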

[1] = input ligand: microRNA oligo, concentration not stated
[2] = Eterna round: R95, input ligand: microRNA oligo, concentration not stated
[3] = Eterna round: R95, input ligand: FMN 200 uM
[4] = Eterna round: R95, input ligand: none

Row | Sequence | apparent KD of MS2 coat protein [1] [nM] | apparent KD of MS2 coat protein [2] [nM] | apparent KD of MS2 coat protein (input ligand: FMN 200 uM) [nM] | apparent KD of MS2 coat protein (input ligand: none) [nM] | apparent KD of MS2 coat protein [3] [nM] | apparent KD of MS2 coat protein [4] [nM]
1 | UAUAUAUAGUAAGGAUAUGUAAUUAGUUUAUAAACAGAAGGUACUGACAUGAGGAUCACCCAUGUUUUAGUGUGGGCAUGUAGA [JMF's solution 36] (Eterna round: R96, puzzle: Exclusion NG 1) | 61.3 |  |  |  |  | 
2 | UUGGAGAUAGGAUAUACGAGGAGAGUUGAGGGAAGGUGAUGACAUGAGGAUCACCCAUGUAGAAGGAUCAGGAG [JR_Exclu2_Sub069] (puzzle: Exclusion 2) |  | 118 |  |  |  | 
3 | ACGUAUAGAGGAUAUACAGAAUAUUACAUGAGGAUCACCCAUGUUCUUCAAUGUAUAUUUGUAGAAGGCUAAUGAA [EX-5 Malc#8] (puzzle: Exclusion 5) |  | 62.3 |  |  |  | 
4 | UGAGUGCUGCGAGGAUAUACAUGAGGAUCACCCAUGUAAUCGUGUGAGGCAAAGCCUCACACGAAGUAGAAGGCGCAGUACUCA [Mat - Exclusion NG 2 - Mod of JL - D18] (Eterna round: R96, puzzle: Exclusion NG 2) | 12.4 |  | 15.7 | 18.6 |  | 
5 | UAUACUAGAUAGGAUAUACUAUAUAAAUAAUUCGUAGAAGGAUCUACAUGAGGAUCACCCAUGUUAACAGCAGU [JR_E6_Sub005] (puzzle: Exclusion 6) |  | 46.6 |  |  | 30.7 | 46.6
6 | GUGAGGUAAGGAUAUAGUAGUGAAGGUAAGAUAUGAGAAUGCUAGAAGGUACAUGAGGAUCACCCAUGUUCGGG [JR_Exclu4_Sub089] (puzzle: Exclusion 4) |  | 173 |  |  |  | 
7 | CAGUACUGAGGAUAUACAUGAGGAUCACCCAUGUGUUCCAGCUGGGAAACUAGCAAAAGUAGAAGGCAGUACUG [salish99_ex3_r3_076] (puzzle: Exclusion 3) |  | 27.3 |  |  | 422 | 20.8
8 | CAGUACUGAGGAUAUACAUGAGGAUCACCCAUGUGUGCCAGCUAGGAAACUAGCAAAAGUAGAAGGCAGUACUG [salish99_ex3_r3_082] (puzzle: Exclusion 3) |  | 12 |  |  | 102 | 11.9
9 | AUCAGCUCGUGAGGAUAUGCACAUGAGGAUCACCCAUGUAAGAUCAAGCUGCUUCGGCAGCAAGUGCAGAAGGCACGAGCUGAU [ENG2/9-A2] (Eterna round: R96, puzzle: Exclusion NG 2) | 132 |  | 186 | 182 |  | 
10 | GGUUGGCGAGGAUAUACAUGAGGAUCACCCAUGUGAGAAAAUAGUGAGGAAAAGAAAAGUAGAAGGCGCUGACG [Mat - Exclusion 3 - Mod of Salish D54] (puzzle: Exclusion 3) |  | 38.8 |  |  | 320 | 41.5
11 | CAAAAUGCUCGAGGAUAUCCGAGGAGCAGAAAAGGAGAAGGCGAGGAUAAAGAACAUGAGGAUCACCCAUGUGAACCUCGUAAU [Lereores] (Eterna round: R96, puzzle: Exclusion NG 1) | 14.6 |  | 16.9 | 16.1 |  | 
12 | UUGGAGAUAGGAUAUACGAGGAGAGUUGAGGGAAGGUGAUGACAUGAGGAUCACCCAUGUAGAAGGAUCAGGAG [JR_Exclu2_Sub069] (Eterna round: R96, puzzle: Exclusion 2) | 98.8 |  | 169 | 172 |  | 
13 | GGCAGUCGAGGAUAUACGAUCGUGCUUCGGCACGUAAGAUCACAUGAGGAUCACCCAUGUAGAAGGCGACUGCC [Mod 2 - Jieux - Exclusion 2] (Eterna round: R97, puzzle: Exclusion 2) |  |  | 214 | 33.4 |  | 
14 | GUCAGACGAGGAUAUGAUAAUUAAUACAUGAGGAUCACCCAUGUAAUACUGAUCCAUGGAUCAGAAGGCGUCUGAC [E5/4-A4] (Eterna round: R97, puzzle: Exclusion 5) |  |  | 42.7 | 17.6 |  | 
15 | AACGAGUGAGGAUAUCUUGACGGUUUGCAUCAGGCCCUCACAGAGAAGGCACUUGAGGAUCACCCAAGUGACCA [Eredgeinus] (Eterna round: R97, puzzle: Exclusion 4) |  |  | 16.5 | 14.2 |  | 
16 | AGUACUAACACGAAAGUGUUAGUACAAUAAGCUAGUGGAACAUGAGGAUCACCCAUGUCCUCAUUAGCUCGUCUUAG [Mat - Sensor v3 - Turn-off var 2 - D35] (puzzle: Sensor v3, turn-off variant 2) |  | 39.7 |  |  | 15.4 | 15.1
17 | UCGCUCCGUGUAGGAUAUCGUUGUACCCUGCGGCGAGAAGGACAUGAGGAUCACCCAUGUAUGUUAUUAUCACGCGUGGCGCAC [Design 70] (Eterna round: R96, puzzle: Exclusion NG 1) | 15.5 |  | 15.4 | 21.6 |  | 
18 | UUCAUGUGAGGAUAUGUGAUCUGCUUUCUGUUUAGAUGAUCACAGAAGGCACAUGAGGAUCACCCAUGUAGAUC [Ex4 - 3 - 30] (puzzle: Exclusion 4) |  | 60.5 |  |  |  | 
19 | UAUGGUUAAGUCAGGAUAUGCUCAUAGAAGUCUAUGCAGAAGGGACAUGAGGAUCACCCAUGUAUGGUCGUGUU [Ex4 #65] (Eterna round: R97, puzzle: Brourd's mod of Exclusion 4) |  |  | 142 | 70.9 |  | 
20 | UCCACACAUGAGGAUCACCCAUGUCAGGAUAUCUUUAGGGACUAUGGUUAUUCCUAAUAGAGAAGGGACAUAUU [EX1 B.27] (Eterna round: R97, puzzle: Exclusion 1) |  |  | 152 | 37.1 |  | 
21 | GAUAGGACGUGGUCAGGUAACAUGAGGAUCACCCAUGUAGGUCUAGGAACAAGCUUUUUGAAAGCUCGUCUUAUAAA [JR_SV3TOV1_Sub056] (puzzle: Sensor v3, turn-off variant 1) |  | 18.9 |  |  | 17.4 | 21.2
22 | UUUGUUUAGGUAGGAUAUACUUUUAAUUUCUCUUUCCUUACAUGAGGAUCACCCAUGUUUACAUUGUAGAAGGACCACUUUGUU [JR_ExcNG2_Sub052] (Eterna round: R96, puzzle: Exclusion NG 2) | 16.5 |  |  |  |  | 
23 | UUUCCUGCGCGGGUUUUUUACAUGAGGAUCACCCAUGUCCUCUGCUUGUCUUGUCUUGGGCUUGUUUCGGGUUCGGG [-18.4, -40.2 kcal, A 8%] (Eterna round: R97, puzzle: Sensor, turn-off variant 1) |  |  | 635 | 1190 |  | 
24 | UAACAAGCUUUAAGAUCCUACAUGAGGAUCACCCAUGUGCUCGUCUUAUAACGUACUGUGACGAAAGUCACGGUACG [JL TOV1 3.17] (Eterna round: R97, puzzle: Sensor, turn-off variant 1) |  |  | 206 | 160 |  | 
25 | GCGCUGUCAGGAUAUGUGUGUGUGUGUGAAAGCGCGCGCGCGCAGAAGGGACAUGAGGAUCACCCAUGUGGUGU [-31.2, -30.2 kcal, A 20%, 6bis-6bis] (Eterna round: R97, puzzle: Exclusion 4) |  |  | 78.7 | 265 |  | 
26 | GCAUGGCGAGGAUAUACAUGAGGAUCACCCAUGUGAGAAUAAUAAGUGAGGAAGAAAAGUAGAAGGCGCUGUGG [Mat - Exclusion 3 - Mod of Salish D64] (puzzle: Exclusion 3) |  | 70.1 |  |  | 250 | 97.8
